Reference: article PMC2568859, “Hybrids of the bHLH and bZIP Protein Motifs Display Different DNA-Binding Activities In Vivo vs. In Vitro”

B1: nonspecific 24-mer duplex (dsDNA)
DNA 1: TGCAGGAATTCCAAGGTGAAGGTT
DNA 2: AACCTTCACCTTGGAATTCCTGCA
B2: E-box 24-mer duplex (dsDNA)
DNA 1: TGCAGGAATCACGTGATGAAGGTT
DNA 2: AACCTTCATCACGTGATTCCTGCA

What was measured:
ArntbHLH [1] = biological target: T1, ArntbHLH (Homo sapiens (isoform variant 3), UniProt P27540-2 65-130); assay: fluorescence anisotropy; up to 1 uM monomeric protein; data not shown; Buffer B: 100 mM Tris pH 7.4, 150 mM NaCl, 1 mM EDTA, 200 mM guanidine-HCl, 20% glycerol, 0.1 mg/mL acetylated BSA, 100 uM bp calf thymus DNA; 1 nM duplex; overnight 4 C then 22 C. Buffer C: 100 mM Tris pH 7.4, 150 mM NaCl, 1 mM EDTA, 1.0 ug/mL poly dI-dC. Buffer A: phosphate pH 7.4, 150 mM NaCl, 2.7 mM KCl, 1 mM EDTA, 800 mM urea, 20% glycerol, …; details: protein: recombinant; chain copies: 2; label: 5' 6-FAM on one strand; 24-mer duplex
ArntbHLH-C/EBP [2] = biological target: T2, ArntbHLH-C/EBP (Homo sapiens (Arnt isoform variant 3) / …, UniProt P27540-2 65-130+=RIR+P05554:317-345, internal_change); assay: as above; details: protein: recombinant; (pET-28A(+), TALON purified); chain copies: 2; label: 5' 6-FAM on one strand; 24-mer duplex
ArntbHLH [3] = biological target: T1, ArntbHLH; assay: fluorescence anisotropy; Buffer C (no additives, 1.0 ug/mL poly dI-dC); single isotherm, plateau not reached; Hill ~2; Buffer B: 100 mM Tris pH 7.4, 150 mM NaCl, 1 mM EDTA, 200 mM guanidine-HCl, 20% glycerol, 0.1 mg/mL acetylated BSA, 100 uM bp calf thymus DNA; 1 nM duplex; overnight 4 C then 22 C. Buffer C: 100 mM Tris pH 7.4, 150 mM NaCl, 1 mM EDTA, 1.0 ug/mL poly dI-dC. Buffer A: phosphate pH 7.4, 150 mM NaCl, …; details: protein: recombinant; chain copies: 2; label: 5' 6-FAM on one strand; 24-mer duplex
ArntbHLH-C/EBP [4] = biological target: T2, ArntbHLH-C/EBP; assay: as above; details: protein: recombinant; (pET-28A(+), TALON purified); chain copies: 2; label: 5' 6-FAM on one strand; 24-mer duplex

T2 sequence (P27540 other isoform, or with tags, fused parts or gaps): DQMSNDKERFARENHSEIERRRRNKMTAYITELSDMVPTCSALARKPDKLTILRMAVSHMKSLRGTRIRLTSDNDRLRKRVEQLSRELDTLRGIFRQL
T1 sequence (P27540 other isoform, or with tags, fused parts or gaps): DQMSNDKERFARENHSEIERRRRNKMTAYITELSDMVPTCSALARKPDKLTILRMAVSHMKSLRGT

Binder	binding result (ArntbHLH [1])	binding result (ArntbHLH-C/EBP [2])	Kd (ArntbHLH [3])	Kd (ArntbHLH-C/EBP [4])
B1	no binding	no binding		
B2			~350 nM	~350 nM
